In PMC12576456 one finds BiFC YFP fluorescence, percent of YFT1-C data, which are given here for one substance.

The target of assay [1] is YFT1-C^S927A/S1118A (cYFP fusion) (tomato (Solanum lycopersicum)). Kind of assay: split reporter (BiFC, NanoBiT); BiFC: nYFP-SlTFT1 with YFT1-C derivatives fused to cYFP, transiently co-transformed into N. benthamiana leaves via Agrobacterium; YFP by confocal microscopy, intensity by ImageJ.
Assay [2] has as its target YFT1-C^S927D/S1118D (cYFP fusion) (tomato (Solanum lycopersicum)). Described as above.

On to nYFP-SlTFT1 (natural protein), for which the BiFC YFP fluorescence, percent of YFT1-C turned out to be 67% in assay [1] and 114% in assay [2].
